Experiment [1] concerns the target recombinant sponge (Eunapius subterraneus) developmentally regulated GTP-binding protein 1, His-tagged (Eunapius subterraneus).
In experiment [2] the target is recombinant sponge (Eunapius subterraneus) DRG family regulatory protein 1, His-tagged (Eunapius subterraneus). Briefly: SEC; Superdex 200 Increase 10/300 GL, 10 mM phosphate buffer, 140 mM NaCl, pH 7.4, 4 °C; column calibrated with standards; fractions analysed by SDS-PAGE and anti-His Western blot.
In experiment [3] the target is T1, recombinant human DRG family regulatory protein 1, His-tagged (human, UniProt Q8WU90 1-426).
T1 construct: human DFRP1 (LEREPO4/ZC3H15), cDNA from a commercially available product; also called HsaDFRP1; human DFRP1
T1 sequence (looked up): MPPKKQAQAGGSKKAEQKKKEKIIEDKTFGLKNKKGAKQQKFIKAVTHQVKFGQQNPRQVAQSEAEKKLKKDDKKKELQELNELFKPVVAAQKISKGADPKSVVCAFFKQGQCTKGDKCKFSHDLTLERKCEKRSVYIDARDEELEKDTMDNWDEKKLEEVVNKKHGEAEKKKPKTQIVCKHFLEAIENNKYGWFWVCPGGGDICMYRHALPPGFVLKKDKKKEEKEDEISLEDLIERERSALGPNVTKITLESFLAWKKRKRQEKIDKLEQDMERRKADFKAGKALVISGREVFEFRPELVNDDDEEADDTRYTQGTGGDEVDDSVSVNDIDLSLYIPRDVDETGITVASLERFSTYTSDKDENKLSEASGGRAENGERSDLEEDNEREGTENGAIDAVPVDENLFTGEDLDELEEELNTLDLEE
Briefly: cross-linking; glutaraldehyde cross-linking of a mixture of DRG1 and DFRP1 (2 ug of each), or of DFRP1 alone, in PBS, 0.125-0.5% glutaraldehyde, 30 min, room temperature (25 °C); SDS-PAGE, Coomassie. The conditions noted are these: both partners purified.

Sequence of recombinant sponge (Eunapius subterraneus) developmentally regulated GTP-binding protein 1, His-tagged (Eunapius subterraneus) (main, as listed by the source): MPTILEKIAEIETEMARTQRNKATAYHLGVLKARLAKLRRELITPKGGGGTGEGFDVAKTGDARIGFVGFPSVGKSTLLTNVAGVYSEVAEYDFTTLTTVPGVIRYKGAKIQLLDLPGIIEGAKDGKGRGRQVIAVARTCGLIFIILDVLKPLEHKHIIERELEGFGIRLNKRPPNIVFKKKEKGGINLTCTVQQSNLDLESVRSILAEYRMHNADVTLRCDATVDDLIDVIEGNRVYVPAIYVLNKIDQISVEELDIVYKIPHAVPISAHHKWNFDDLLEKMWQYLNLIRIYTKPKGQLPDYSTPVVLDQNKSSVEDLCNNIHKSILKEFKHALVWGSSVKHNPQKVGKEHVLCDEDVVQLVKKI

In the case of “recombinant sponge (Eunapius subterraneus) DRG family regulatory protein 1, His-tagged (natural protein)”, in experiment [1], the GTPase activity of EsuDRG1 (GTPase-Glo luminescence assay) with equimolar EsuDFRP1, 1.2 uM each, against EsuDRG1 alone was 2.5 fold. In addition, in experiment [2], the stoichiometry N (in general, a count of units in the complex or per binding partner) is 4.

B1: recombinant human developmentally regulated GTP-binding protein 1, His-tagged (natural protein, UniProt Q9Y295 1-367, looked up)
chain: MSSTLAKIAEIEAEMARTQKNKATAHHLGLLKARLAKLRRELITPKGGGGGGPGEGFDVAKTGDARIGFVGFPSVGKSTLLSNLAGVYSEVAAYEFTTLTTVPGVIRYKGAKIQLLDLPGIIEGAKDGKGRGRQVIAVARTCNLILIVLDVLKPLGHKKIIENELEGFGIRLNSKPPNIGFKKKDKGGINLTATCPQSELDAETVKSILAEYKIHNADVTLRSDATADDLIDVVEGNRVYIPCIYVLNKIDQISIEELDIIYKVPHCVPISAHHRWNFDDLLEKIWDYLKLVRIYTKPKGQLPDYTSPVVLPYSRTTVEDFCMKIHKNLIKEFKYALVWGLSVKHNPQKVGKDHTLEDEDVIQIVKK
notes: human DRG1, cDNA from a commercially available product; also called HsaDRG1; HsaDRG1-His
On to B1, for which the binding result in experiment [3] is on record as “binds”.

Values taken from paper PMC9256742, “Structure and function of cancer-related developmentally regulated GTP-binding protein 1 (DRG1) is conserved between sponges and humans” (Scientific Reports, 2022).
